# Laboratory results published in patent US20240270846A1 (published 2024).
# Substitutions are numbered along the chain they refer to. Names and notes keep the numbering of the source.
# B1: CE115HA000 D101Q one-arm antibody (antibody, human IgG1, kappa, L234A L235A, N297A, name in Kabat numbering)
# heavy: QVQLVESGGGVVQPGRSLRLSCAASGFTFSNAWMHWVRQAPGKGLEWVAQIKAKSNNYATYYAESVKGRFTISRDDSKNSLYLQMNSLKTEDTAVYYCRYVHYGAYYGVQAWGQGTTVTVSSASTKGPSVFPLAPSSKSTSGGTAALGCLVKDYFPEPVTVSWNSGALTSGVHTFPAVLQSSGLYSLSSVVTVPSSSLGTQTYICNVNHKPSNTKVDKKVEPKSCDKTHTCPPCPAPEAAGGPSVFLFPPKPKDTLMISRTPEVTCVVVDVSHEDPEVKFNWYVDGVEVHNAKTKPREEQYASTYRVVSVLTVLHQDWLNGKEYKCKVSNKALPAPIEKTISKAKGQPREPQVYTLPPSRCELTKNQVSLSCAVKGFYPSDIAVEWESNGQPENNYKTTPPVLDSDGSFFLVSKLTVDKSRWQQGNVFSCSVMHEALHNHYTQKSLSLSPDYKDDDDK
# chain: EPKSSDKTHTCPPCPAPELLGGPSVFLFPPKPKDTLMISRTPEVTCVVVDVSHEDPEVKFNWYVDGVEVHNAKTKPREEQYNSTYRVVSVLTVLHQDWLNGKEYKCKVSNKALPAPIEKTISKAKGQPREPQVCTLPPSRDELTKNQVSLWCLVKGFYPSDIAVEWESNGQPENNYKTTPPVLDSDGSFFLYSKLTVDKSRWQQGNVFSCSVMHEALHNRYTQKSLSLSP
# light: DIVMTQSPLSLPVTPGEPASISCRSSQSLVHSNRNTYLHWYQQKPGQAPRLLIYKVSNRFSGVPDRFSGSGSGTDFTLKISRVEAEDVGVYYCGQGTQVPYTFGQGTKLEIKRTVAAPSVFIFPPSDEQLKSGTASVVCLLNNFYPREAKVQWKVDNALQSGNSQESVTEQDSKDSTYSLSSTLTLSKADYEKHKVYACEVTHQGLSSPVTKSFNRGEC
# notes: one-arm antibody (one Fab)
# B2: CE115HA000 G98A one-arm antibody (antibody, human IgG1, kappa, L234A L235A, N297A, name in Kabat numbering)
# heavy: B1 heavy with G104A, Q110D
# chain: B1 chain
# light: B1 light
# notes: one-arm antibody (one Fab)
# B3: CE115HA000 H96R one-arm antibody (antibody, human IgG1, kappa, L234A L235A, N297A, name in Kabat numbering)
# heavy: B1 heavy with H102R, Q110D
# chain: B1 chain
# light: B1 light
# notes: one-arm antibody (one Fab)
# B4: CE115HA000 H96P one-arm antibody (antibody, human IgG1, kappa, L234A L235A, N297A, name in Kabat numbering)
# heavy: B1 heavy with H102P, Q110D
# chain: B1 chain
# light: B1 light
# notes: one-arm antibody (one Fab)
# B5: CE115HA000 H96K one-arm antibody (antibody, human IgG1, kappa, L234A L235A, N297A, name in Kabat numbering)
# heavy: B1 heavy with H102K, Q110D
# chain: B1 chain
# light: B1 light
# notes: one-arm antibody (one Fab)
# B6: CE115HA000 H96L one-arm antibody (antibody, human IgG1, kappa, L234A L235A, N297A, name in Kabat numbering)
# heavy: B1 heavy with H102L, Q110D
# chain: B1 chain
# light: B1 light
# notes: one-arm antibody (one Fab)
# B7: CE115HA000 G98D one-arm antibody (antibody, human IgG1, kappa, L234A L235A, N297A, name in Kabat numbering)
# heavy: B1 heavy with G104D, Q110D
# chain: B1 chain
# light: B1 light
# notes: one-arm antibody (one Fab)
# B8: CE115HA000 G98Q one-arm antibody (antibody, human IgG1, kappa, L234A L235A, N297A, name in Kabat numbering)
# heavy: B1 heavy with G104Q, Q110D
# chain: B1 chain
# light: B1 light
# notes: one-arm antibody (one Fab)
# B9: CE115HA000 G100bF one-arm antibody (antibody, human IgG1, kappa, L234A L235A, N297A, name in Kabat numbering)
# heavy: B1 heavy with G108F, Q110D
# chain: B1 chain
# light: B1 light
# notes: one-arm antibody (one Fab)
# B10: CE115HA000 G98R one-arm antibody (antibody, human IgG1, kappa, L234A L235A, N297A, name in Kabat numbering)
# heavy: B1 heavy with G104R, Q110D
# chain: B1 chain
# light: B1 light
# notes: one-arm antibody (one Fab)
# B11: CE115HA000 G100bD one-arm antibody (antibody, human IgG1, kappa, L234A L235A, N297A, name in Kabat numbering)
# heavy: B1 heavy with G108D, Q110D
# chain: B1 chain
# light: B1 light
# notes: one-arm antibody (one Fab)
# B12: CE115HA000 D101S one-arm antibody (antibody, human IgG1, kappa, L234A L235A, N297A, name in Kabat numbering)
# heavy: B1 heavy with Q110S
# chain: B1 chain
# light: B1 light
# notes: one-arm antibody (one Fab)
# B13: CE115HA000 G100bL one-arm antibody (antibody, human IgG1, kappa, L234A L235A, N297A, name in Kabat numbering)
# heavy: B1 heavy with G108L, Q110D
# chain: B1 chain
# light: B1 light
# notes: one-arm antibody (one Fab)
# B14: CE115HA000 E61P one-arm antibody (antibody, human IgG1, kappa, L234A L235A, N297A, name in Kabat numbering)
# heavy: B1 heavy with E64P, Q110D
# chain: B1 chain
# light: B1 light
# notes: one-arm antibody (one Fab)
# B15: CE115HA000 G98P one-arm antibody (antibody, human IgG1, kappa, L234A L235A, N297A, name in Kabat numbering)
# heavy: B1 heavy with G104P, Q110D
# chain: B1 chain
# light: B1 light
# notes: one-arm antibody (one Fab)
# B16: CE115HA000 E61Q one-arm antibody (antibody, human IgG1, kappa, L234A L235A, N297A, name in Kabat numbering)
# heavy: B1 heavy with E64Q, Q110D
# chain: B1 chain
# light: B1 light
# notes: one-arm antibody (one Fab)
# B17: CE115HA000 G98K one-arm antibody (antibody, human IgG1, kappa, L234A L235A, N297A, name in Kabat numbering)
# heavy: B1 heavy with G104K, Q110D
# chain: B1 chain
# light: B1 light
# notes: one-arm antibody (one Fab)
# B18: CE115HA000 G98T one-arm antibody (antibody, human IgG1, kappa, L234A L235A, N297A, name in Kabat numbering)
# heavy: B1 heavy with G104T, Q110D
# chain: B1 chain
# light: B1 light
# notes: one-arm antibody (one Fab)
# B19: CE115HA000 D101T one-arm antibody (antibody, human IgG1, kappa, L234A L235A, N297A, name in Kabat numbering)
# heavy: B1 heavy with Q110T
# chain: B1 chain
# light: B1 light
# notes: one-arm antibody (one Fab)
# B20: CE115HA000 D101Y one-arm antibody (antibody, human IgG1, kappa, L234A L235A, N297A, name in Kabat numbering)
# heavy: B1 heavy with Q110Y
# chain: B1 chain
# light: B1 light
# notes: one-arm antibody (one Fab)
# B21: CE115HA000 G100bY one-arm antibody (antibody, human IgG1, kappa, L234A L235A, N297A, name in Kabat numbering)
# heavy: B1 heavy with G108Y, Q110D
# chain: B1 chain
# light: B1 light
# notes: one-arm antibody (one Fab)
# B22: CE115HA000 K64Q one-arm antibody (antibody, human IgG1, kappa, L234A L235A, N297A, name in Kabat numbering)
# heavy: B1 heavy with K67Q, Q110D
# chain: B1 chain
# light: B1 light
# notes: one-arm antibody (one Fab)
# B23: CE115HA000 H96Y one-arm antibody (antibody, human IgG1, kappa, L234A L235A, N297A, name in Kabat numbering)
# heavy: B1 heavy with H102Y, Q110D
# chain: B1 chain
# light: B1 light
# notes: one-arm antibody (one Fab)
# B24: CE115HA000 D101R one-arm antibody (antibody, human IgG1, kappa, L234A L235A, N297A, name in Kabat numbering)
# heavy: B1 heavy with Q110R
# chain: B1 chain
# light: B1 light
# notes: one-arm antibody (one Fab)
# B25: CE115HA000 H96G one-arm antibody (antibody, human IgG1, kappa, L234A L235A, N297A, name in Kabat numbering)
# heavy: B1 heavy with H102G, Q110D
# chain: B1 chain
# light: B1 light
# notes: one-arm antibody (one Fab)
# B26: CE115HA000 D101V one-arm antibody (antibody, human IgG1, kappa, L234A L235A, N297A, name in Kabat numbering)
# heavy: B1 heavy with Q110V
# chain: B1 chain
# light: B1 light
# notes: one-arm antibody (one Fab)
# B27: CE115HA000 G100bS one-arm antibody (antibody, human IgG1, kappa, L234A L235A, N297A, name in Kabat numbering)
# heavy: B1 heavy with G108S, Q110D
# chain: B1 chain
# light: B1 light
# notes: one-arm antibody (one Fab)
# B28: CE115HA000 H96Q one-arm antibody (antibody, human IgG1, kappa, L234A L235A, N297A, name in Kabat numbering)
# heavy: B1 heavy with H102Q, Q110D
# chain: B1 chain
# light: B1 light
# notes: one-arm antibody (one Fab)
# B29: CE115HA000 G100bE one-arm antibody (antibody, human IgG1, kappa, L234A L235A, N297A, name in Kabat numbering)
# heavy: B1 heavy with G108E, Q110D
# chain: B1 chain
# light: B1 light
# notes: one-arm antibody (one Fab)
# B30: CE115HA000 G98S one-arm antibody (antibody, human IgG1, kappa, L234A L235A, N297A, name in Kabat numbering)
# heavy: B1 heavy with G104S, Q110D
# chain: B1 chain
# light: B1 light
# notes: one-arm antibody (one Fab)
# B31: CE115HA000 G98H one-arm antibody (antibody, human IgG1, kappa, L234A L235A, N297A, name in Kabat numbering)
# heavy: B1 heavy with G104H, Q110D
# chain: B1 chain
# light: B1 light
# notes: one-arm antibody (one Fab)
# B32: CE115HA000 H96S one-arm antibody (antibody, human IgG1, kappa, L234A L235A, N297A, name in Kabat numbering)
# heavy: B1 heavy with H102S, Q110D
# chain: B1 chain
# light: B1 light
# notes: one-arm antibody (one Fab)
# B33: CE115HA000 G98Y one-arm antibody (antibody, human IgG1, kappa, L234A L235A, N297A, name in Kabat numbering)
# heavy: B1 heavy with G104Y, Q110D
# chain: B1 chain
# light: B1 light
# notes: one-arm antibody (one Fab)
# Target: T1, CD3 epsilon homodimer protein (UniProt P07766 23-126)
# T1 construct: Immobilized on Sensor chip CM4 by amine coupling; construct not described; also called CD3 (CD3 epsilon)
# T1 sequence (P07766 23-126): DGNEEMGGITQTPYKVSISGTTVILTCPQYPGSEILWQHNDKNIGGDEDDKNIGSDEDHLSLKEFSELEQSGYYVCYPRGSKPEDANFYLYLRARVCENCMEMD
# Test: SPR Biacore T200, CD3 epsilon homodimer on CM4 chip, antibody as analyte;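 also: Amine-coupled CD3 epsilon homodimer, run at 25 °C in HBS-EP+ buffer, ratio is bound amount of each single-residue H chain variant over that of the parent antibody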
row,ratio of amounts bound (Y/X vs CE115HA000),Binder
1,2.35,B1
2,1.1,B2
3,0.46,B3
4,0.12,B4
5,0.35,B5
6,0.14,B6
7,0.26,B7
8,1.22,B8
9,0.3,B9
10,2.96,B10
11,0.27,B11
12,1.16,B12
13,0.27,B13
14,1.07,B14
15,1.02,B15
16,1.07,B16
17,2.83,B17

row,ratio of amounts bound (Y/X vs CE115HA000),Binder
1,1.05,B18
2,0.79,B19
3,0.49,B20
4,0.23,B21
5,0.89,B22
6,0.17,B23
7,0.24,B24
8,0.43,B25
9,1.33,B26
10,0.52,B27
11,0.42,B28
12,0.26,B29
13,1.01,B30
14,1.58,B31
15,0.44,B32
16,2.22,B33
